As a reminder, the EC50 is the concentration at which the effect is half-maximal. The low end stands for higher potency in that assay, the high end for lower potency in that assay.

Two molecules from patent publication US20250002610A1 (Genmab, published 2025) can be followed below.

In this assay the target is T1, human FAPα (Fibroblast activation protein alpha), cell surface expressed (human, UniProt Q12884 1-760).
T1 construct: Endogenous on human lung fibroblasts and CAFs
T1 sequence: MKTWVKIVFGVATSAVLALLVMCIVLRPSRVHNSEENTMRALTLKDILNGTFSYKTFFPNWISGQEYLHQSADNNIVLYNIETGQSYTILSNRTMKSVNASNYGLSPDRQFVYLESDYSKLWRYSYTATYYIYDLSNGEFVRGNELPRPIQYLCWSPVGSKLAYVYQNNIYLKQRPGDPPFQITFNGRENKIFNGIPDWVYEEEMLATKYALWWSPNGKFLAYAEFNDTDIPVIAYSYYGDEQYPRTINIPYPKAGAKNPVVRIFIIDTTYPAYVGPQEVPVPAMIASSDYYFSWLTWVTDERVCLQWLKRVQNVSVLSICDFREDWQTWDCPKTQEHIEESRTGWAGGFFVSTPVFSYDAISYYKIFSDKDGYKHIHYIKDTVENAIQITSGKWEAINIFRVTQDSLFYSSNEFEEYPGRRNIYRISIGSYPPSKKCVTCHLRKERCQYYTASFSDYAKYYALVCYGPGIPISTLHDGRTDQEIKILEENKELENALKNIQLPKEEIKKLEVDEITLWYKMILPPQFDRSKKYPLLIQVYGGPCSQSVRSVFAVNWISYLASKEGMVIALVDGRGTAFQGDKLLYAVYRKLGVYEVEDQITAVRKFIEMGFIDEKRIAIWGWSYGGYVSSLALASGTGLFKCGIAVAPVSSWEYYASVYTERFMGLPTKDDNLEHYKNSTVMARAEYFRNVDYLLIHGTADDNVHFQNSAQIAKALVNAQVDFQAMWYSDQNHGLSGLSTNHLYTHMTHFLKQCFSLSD
The experiment in a line: flow cytometry, Expi293F cells expressing human FAPα, n = 3. Here is the method:
Binding of BisG1-FAPα-FERL/DR4-FERR, BisG1-FAPα-FEAL/b12-FEAR and IgG1-FAPα-FERL to FAPα of species commonly used for nonclinical toxicology studies was assessed by flow cytometry using Expi293F cells transiently expressing FAPα from different animal species. IgG1-b12 was included as negative control.
Expi293F cells expressing recombinant FAPα from various species (human, cynomolgus monkey, dog, pig, rat or mouse) were seeded (20,000 cells/well) in 96-Well round bottom plates (Greiner Bio-one, Cat #650101). Antibody dilutions were prepared using FACS buffer, consisting of PBS (Capricorn Scientific, Cat #PBS-10XA, diluted to 1×PBS in distilled water)+1% BSA (Roche, Cat #10735086001)+0.02% Sodium Azide (Bio-World, Cat #41920044-3). Plates were centrifuged, supernatant was removed, and cells were resuspended in 100 μL of antibody dilutions (concentration range 30-0.00017 μg/mL with three-fold serial dilutions using FACS buffer) of BisG1-FAPα-FERL/DR4-FERR, BisG1-FAPα-FEAL/b12-FEAR, IgG1-FAPα-FERL and IgG1-b12 and incubated for 30 min at 4° C. […] After 30 min incubation at 4° C., cells were washed with FACS buffer and resuspended in FACS buffer supplemented with TO-PRO-3 Iodide viability marker (Invitrogen, Cat #T3605, diluted 1:4,000). Antibody binding to viable cells (gMFI of PE on TO-PRO-3 negative cells) was analyzed by flow cytometry on a FACS Celesta and FACS_Diva software (first two experiments) or iQue® 3 and FlowJo software (last experiment). gMFI was determined and visualized using GraphPad Prism. Binding curves were analyzed using nonlinear regression analysis. The concentration (pg/mL) at which 50% of the maximal effect was observed (EC₅₀) was derived from the fitted curves.
For orientation: Flow cytometry measures light scatter and fluorescence of single cells or particles in a stream.

Numbering of substitutions follows the chain as printed.

B1: BisG1-FAPα-FEAL/b12-FEAR (bispecific antibody, human IgG1, kappa)
heavy 1: EVQLLESGGGLVQPGGSPRLSCEASGFTFSSYALSWVRQAPGKGLEWVSAISGSGGGRYYADSVKGRFTISRDNSKNTLFLQMNSLRAEDTAVYYCAKEGYSSSGTYWDHWGQGTLVTVSSASTKGPSVFPLAPSSKSTSGGTAALGCLVKDYFPEPVTVSWNSGALTSGVHTFPAVLQSSGLYSLSSVVTVPSSSLGTQTYICNVNHKPSNTKVDKRVEPKSCDKTHTCPPCPAPEFEGGPSVFLFPPKPKDTLMISRTPEVTCVVVAVSHEDPEVKFNWYVDGVEVHNAKTKPREEQYNSTYRVVSVLTVLHQDWLNGKEYKCKVSNKALPAPIEKTISKAKGQPREPQVYTLPPSREEMTKNQVSLTCLVKGFYPSDIAVEWESNGQPENNYKTTPPVLDSDGSFLLYSKLTVDKSRWQQGNVFSCSVMHEALHNHYTQKSLSLSPG
light 1: AIQMTQSPSSVSASVGDRVTITCRASQGVSSWLAWYQQKPGRAPKLLIYVASTLQSGVPSRFSGSGSGTDFTLTINSLQPEDFATYYCQQANSFPPTFGQGTRLEMKRTVAAPSVFIFPPSDEQLKSGTASVVCLLNNFYPREAKVQWKVDNALQSGNSQESVTEQDSKDSTYSLSSTLTLSKADYEKHKVYACEVTHQGLSSPVTKSFNRGEC
heavy 2: QVQLVQSGAEVKKPGASVKVSCQASGYRFSNFVIHWVRQAPGQRFEWMGWINPYNGNKEFSAKFQDRVTFTADTSANTAYMELRSLRSADTAVYYCARVGPYSWDDSPQDNYYMDVWGKGTTVIVSSASTKGPSVFPLAPSSKSTSGGTAALGCLVKDYFPEPVTVSWNSGALTSGVHTFPAVLQSSGLYSLSSVVTVPSSSLGTQTYICNVNHKPSNTKVDKRVEPKSCDKTHTCPPCPAPEFEGGPSVFLFPPKPKDTLMISRTPEVTCVVVAVSHEDPEVKFNWYVDGVEVHNAKTKPREEQYNSTYRVVSVLTVLHQDWLNGKEYKCKVSNKALPAPIEKTISKAKGQPREPQVYTLPPSREEMTKNQVSLTCLVKGFYPSDIAVEWESNGQPENNYKTTPPVLDSDGSFFLYSRLTVDKSRWQQGNVFSCSVMHEALHNHYTQKSLSLSPG
light 2: EIVLTQSPGTLSLSPGERATFSCRSSHSIRSRRVAWYQHKPGQAPRLVIHGVSNRASGISDRFSGSGSGTDFTLTITRVEPEDFALYYCQVYGASSYTFGQGTKLERKRTVAAPSVFIFPPSDEQLKSGTASVVCLLNNFYPREAKVQWKVDNALQSGNSQESVTEQDSKDSTYSLSSTLTLSKADYEKHKVYACEVTHQGLSSPVTKSFNRGEC
notes: Fab-arm exchange of IgG1-FAPα-FEAL and IgG1-b12-FEAR
In turn, B1 registered an EC50 of 0.61 µg/mL.

B2: IgG1-FAPα-FERL (antibody)
heavy: B1 heavy 1 with G240R, A269D
light: B1 light 1
notes: Bivalent monoclonal IgG1 kappa
As for B2, a half-maximal response (EC50) required 0.32 µg/mL.
